Assay results published in the supplement of paper PMC10567573.

B1: HSP90AB1 (parent)
chain: QVANSAFVERVRKRGFEVVYMTEP

Variants of: B1
Assay: protein stability index of a GFP-peptide fusion (GPS, HEK-293T) (PSI 1-6); higher = more stable
Details: c terminus: a fixed tail appended
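Note: lentivirally expressed fusions sorted by FACS into six bins by GFP to DsRed ratio, PSI derived from sequencing read proportions per bin multiplied by bin number.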

Protein stability index, by site and new letter:
A6: S 2.61, H 2.43, D 2.67, V 1.57, P 2.81, C 1.55, L 2.09, T 2.69, N 2.11, F 1.73, M 2.54, G 2.19, R 2.71
R12: K 3.12, N 2.63, P 2.74, L 2.1, M 2.01, D 3.5, T 2.09, W 1.6, H 2.53, E 3.16, Q 2.35, S 2.87, V 2.16, C 1.98
E23: R 2.47, W 2.14, Y 1.66, V 2.38, Q 1.9, K 2.13, S 2.54, F 1.62, P 2.19, T 1.89, H 1.95, M 2.56, A 2.88, I 1.69, C 2.67
F7: H 3.24, W 1.99, P 3.28, T 3.42, K 3.03, Y 2.38, R 2.75, V 2.84, E 3.48, S 2.32, D 3.56, M 2.35
A3: K 2.81, I 2.06, D 2.11, M 2.26, H 2.38, G 2.28, E 2.69, C 2.01, S 2.74, V 2.43, W 1.91, P 2.69, Q 2.46, L 1.85
V2: N 2.75, H 2.49, G 2.59, S 2.69, Y 2.3, C 1.74, L 2.01, W 1.94, P 2.85, Q 2.58, F 2.47, D 3.15, T 2.41
R14: V 1.65, Y 2.21, N 2.69, G 2.09, W 2.16, K 2.54, D 3.23, L 2.03, M 1.6, S 2.26, E 2.75, H 1.98, F 1.92, Q 2.1
G15: V 2.19, I 1.81, N 2.61, C 1.79, L 1.83, W 1.91, H 1.66, M 2.07, S 2.38, K 2.12, E 2.56, A 2.01, P 2.75, Y 1.61
V18: Q 2.59, E 2.99, K 2.12, T 2.67, L 2.58, N 3.1, W 2.05, S 2.57, H 2.83, A 2.96, P 2.47, D 2.88, C 2.38
V8: M 2.49, N 2.8, F 1.8, C 2.92, S 2.54, L 1.96, I 1.88, G 2.91, K 2.54, W 1.47, P 2.48, A 2.33, H 2.47, Y 2.7, Q 2.2, D 3.46
M21: H 3.37, C 2.41, T 3.05, Y 2.04, E 3.06, G 2.65, F 2.06, P 2.8, D 2.96, I 1.98, A 2.11, W 3.09, N 2.77, L 2.6
Q1: Y 3.79, M 1.81, E 1.91, A 2.29, W 1.46, G 2.33, V 2.73, D 2.21, I 1.7, S 2.12, T 1.95, R 1.71, H 1.85, K 2.17
R10: T 2.29, I 1.94, Y 1.58, N 2.99, M 1.54, E 2.28, L 1.81, P 2.57, F 1.29, G 2.17, C 2.05, D 2.58, Q 2.17, V 1.76, A 2.18
E17: P 2.02, V 1.89, H 1.76, R 2.19, F 4.31, M 2.15, G 2.88, K 2.02, C 2.44, I 2.75, A 1.26, Y 2.6, Q 1.51, S 2.49
K13: Y 1.75, F 1.58, P 2.63, D 2.67, W 2.48, I 1.51, N 2.24, L 2.49, C 1.61, A 2.42, S 2.83, M 1.53, V 1.54, R 2.43
N4: L 1.69, K 1.96, D 3.01, S 2.21, I 2.64, F 2.16, W 1.94, P 2.03, R 2.18, E 2.81, Q 2.72, Y 1.72
Y20: R 3.23, N 3.62, I 1.78, H 3.07, G 3.52, E 3.37, W 1.96, D 3.06, T 2.69, C 2.99, V 3.05, P 2.81, K 2.6
F16: L 2.52, W 2.04, Q 4.2, Y 2.11, R 2.98, A 3.87, E 4.47, G 3.28, S 3.64, I 2.61, T 3.1, H 3.05, K 3.2, P 3.05, C 2.71
T22: G 2, I 1.81, C 2.12, E 2.56, W 1.55, S 2.7, A 2.89, P 2.38, F 1.68, N 2.51, M 1.91, L 1.7, H 1.91
P24: Q 2.52, I 2.03, L 1.21, F 1.63, D 3.18, K 2.44, H 2.1, N 2.32, W 2.09, R 2, Y 1.89
E9: A 1.36, Q 1.72, M 2.69, C 2.07, L 3.24, S 1.63, G 2.74, D 2.56, H 2.27, T 1.76, R 1.93, W 3.56, V 1.97, N 1.9, Y 2.32, F 2.16, P 2.56
V19: M 1.84, E 3.43, I 2.15, Y 1.98, G 2.75, K 2.69, C 2.79, A 2.83, S 2.68, P 2.79, W 1.42, L 2.09, Q 2.33, F 1.53
S5: T 2.46, H 2.29, E 2, R 1.77, Y 2.17, W 1.97, M 2.2, K 1.71, V 2.22, N 2.26, A 2.24, G 2.02, D 2.59, L 2.12
V11: W 1.34, R 2.43, H 2.73, T 2.83, I 1.79, G 2.56, E 3.58, K 1.85, Y 2.17, M 2.11, F 2.09, A 2.62, L 1.69, P 2.48, Q 3.2, S 2.61
